Measured values reported in article PMC7276322.

Molecular target: CV30 (human)
Assay: BLI

## SARS-CoV-2 receptor binding domain (from UniProt P0DTC2 319-591) (domain or fragment)
  Kd: 3.6 nM
